Read-outs that look alike come from different tables or passages of the source.

The text below walks through data of patent publication US20260015423A1 (STAIDSON BIOPHARMA, published 2026).

In test [1] the target is T1, Europium-conjugated human PD-L1 (human, UniProt Q9NZQ7 19-238, limits assumed, Europium conjugate (site not stated)).
T1 construct: also called Europium-human PD-L1; PD-L1 (HTRF donor protein)
Nature of the test: HTRF blocking assay: Europium-human PD-L1 with Alexa-647 human PD-1 as the blocked ligand, antibody titrated. Background: Time-resolved FRET reads energy transfer from a long-lived donor to a nearby acceptor.

Test [2] addresses T2, human PD-L1 (Sino biological, 10084-H08H) (human, UniProt Q9NZQ7 19-238).
T2 construct: Bought recombinant protein used as analyte in BLI
Nature of the test: BLI (Octet Red), antibody captured on anti-human Fc sensors, human PD-L1 as analyte.

Test [3] deals with T2, human PD-L1 (Sino biological, …). Described as above. The source holds these as a separate data set.
In test [4] the target is T3, cynomolgus PD-L1 (Sino biological, 90251-C08H) (cynomolgus, UniProt G7PSE7 19-238).
T3 construct: Bought recombinant protein used as analyte in BLI; not shown: C-terminal polyhistidine tag of the bought product (Sino Biological 90251-C08H)
T3 sequence (G7PSE7 entry or part of it C08H C08H limits assumed): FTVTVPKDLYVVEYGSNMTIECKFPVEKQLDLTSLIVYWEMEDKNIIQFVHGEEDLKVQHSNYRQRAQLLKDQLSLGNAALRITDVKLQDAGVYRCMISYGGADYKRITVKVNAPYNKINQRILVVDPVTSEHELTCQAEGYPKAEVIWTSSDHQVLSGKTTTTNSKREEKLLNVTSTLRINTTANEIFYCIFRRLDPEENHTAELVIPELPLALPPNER
Nature of the test: BLI (Octet Red), antibody captured on anti-human Fc sensors, cynomolgus PD-L1 as analyte. Background: BLI is a label-free optical method that tracks binding on a fibre tip over time.

The target in test [5] is T1, Europium-conjugated human PD-L1. Nature of the test: HTRF competition assay: Europium-human PD-L1 with Alexa-647-conjugated Mab 3-16 as competitor, unlabelled antibody titrated.
For test [6] the target is unchanged. As to the kind of experiment: HTRF blocking assay: Europium-human PD-L1 with Alexa-647 human PD-1 as the blocked ligand, antibody titrated. This is another data set of the same source.
For test [7] the target is unchanged. Nature of the test: HTRF competition assay: Europium-human PD-L1 with Alexa-647-conjugated Mab 3-16 as competitor, unlabelled Mab 3-16 titrated.
Test [8] addresses human PD-L1 on cells (Raji cell line expressing human PD-L1; human PBMCs) (human, UniProt Q9NZQ7 19-290). Nature of the test: cell-based or functional assay.
Test [9] has as its target T1, Europium-conjugated human PD-L1. As to the kind of experiment: HTRF competition assay: Europium-human PD-L1 with Alexa-647-conjugated Mab 3-16 as competitor, unlabelled Mab 3-16 titrated. This is another data set of the same source.
Test [10] has as its target T2, human PD-L1 (Sino biological, …). As to the kind of experiment: BLI (Octet Red), antibody captured on anti-human Fc sensors, human PD-L1 as analyte; Table 8 run, alongside humanized Hum-5/6/7.

T1 sequence (Q9NZQ7 19-238 limits assumed): as the sequence (G7PSE7 entry or part of it C08H C08H limits assumed) above, with T33A, S34A, N62S, Q68R, R82Q, L173F, A185T, I192T, L215H counted along it
T2 sequence (Q9NZQ7 19-238 limits assumed): as the sequence (G7PSE7 entry or part of it C08H C08H limits assumed) above, with T33A, S34A, N62S, Q68R, R82Q, L173F, A185T, I192T, L215H counted along it
Chain of human PD-L1 on cells (Raji cell line expressing human PD-L1; human PBMCs) (Q9NZQ7 19-290): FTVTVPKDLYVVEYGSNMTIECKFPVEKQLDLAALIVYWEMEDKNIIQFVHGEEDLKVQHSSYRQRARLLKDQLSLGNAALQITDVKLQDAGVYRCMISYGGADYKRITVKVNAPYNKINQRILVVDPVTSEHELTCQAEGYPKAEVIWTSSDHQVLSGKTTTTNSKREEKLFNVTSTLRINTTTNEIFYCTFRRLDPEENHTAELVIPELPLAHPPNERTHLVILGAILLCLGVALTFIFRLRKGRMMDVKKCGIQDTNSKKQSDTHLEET

B1: chimeric anti-human PD-L1 antibody Mab 3-14 (antibody, human IgG1, kappa, V domains shown)
VH: QVQLQQSGAELVKPGTSVKLSCKASGYTFSMYYMFWVKQRPGQGLEWIGQINPSNGRTNFNEKFKSKATLTVDKSSTTAYMQLSSLTSEDSAVYYCTREISYDEFAYWGQGTLVTVSA
VL: DVVMTQTPLSLPVSLGDQASISCRSSQSLVHSNGNTYLHWYLQKPGQSPKLLIYRVSNRFSGVPDRFSGSGSGTDFTLKISRVEAEDLGIYFCSQSAHLPYTFGGGTKLEIKR
notes: Mouse variable domains on human IgG1 / kappa constant regions
Regarding B1, the “IC50 (read off the curve)” value in [1] is about 0.2 µg/mL. In test [2], this molecule returned a dissociation constant Kd of 0.124 nM, a koff of 4.05e-05 s⁻¹ and an on-rate (kon) of 327000 M⁻¹ s⁻¹.

B2: humanized anti-human PD-L1 antibody Hum-5 (antibody, human IgG1, kappa, V domains shown)
VH: EVQLVESGGGLVQPGGSLRLSCAASGFTFGGFGMHWVRQAPGKGLEWVSYITGDSSTIYYADRVRGRFTISRDNAKNSLYLQMNSLRAEDTAVYYCVRGPPGTWAYWGQGTLVTVSS
VL: EIVLTQSPATLSLSPGERATLSCRASESVEFYGTTLVQWYQQKPGQAPRLLIYGASNVESGIPARFSGSGSGTDFTLTISSLEPEDFAVYYCQQIRKVPWTFGQGTKVEIKR
B2: in test [3], binding was characterised by a dissociation constant (Kd) of 0.126 nM, the dissociation rate constant (koff) is 3.92e-05 s⁻¹ and the kon was found to be 310000 M⁻¹ s⁻¹. In addition, in [4], the equilibrium dissociation constant (Kd) is 0.915 nM, the off-rate (koff) worked out at 8.65e-05 s⁻¹ and the on-rate constant (kon) came out at 94500 M⁻¹ s⁻¹. Also, the “IC50 (read off the curve)” value in test [5] was about 0.1 µg/mL.

B3: humanized anti-human PD-L1 antibody Hum-6 (antibody, human IgG1, kappa, V domains shown)
VH: EVQLVESGGGLVQPGGSLRLSCAASGFTFGGFGMHWVRQAPGKGLEWVSYITGDSSTIYYADRVRGRFTISRDNAKNSLYLQMNSLRAEDTAVYYCVRGPPGTWAYWGQGTLVTVSS
VL: EIVLTQSPATLSLSPGERATLSCRASESVEFYGTTLVQWYQQKPGQPPRLLIYGASNVESGIPARFSGSGSGTDFTLTISSLEPEDFAVYYCQQIRKVPWTFGQGTKVEIKR
In test [3], B3 came in with a dissociation constant Kd of under 0.001 nM, an off-rate constant (koff) of under 1e-07 s⁻¹ and a kon of 292000 M⁻¹ s⁻¹. Also, in [4], the Kd worked out at 0.00208 nM, the koff amounted to 1.33e-07 s⁻¹ and the kon came to 63900 M⁻¹ s⁻¹. Further, the “IC50 (read off the curve)” value in [5] is about 0.1 µg/mL.

B4: humanized anti-human PD-L1 antibody Hum-7 (antibody, human IgG1, kappa, V domains shown)
VH: EVQLVESGGGLVQPGGSLRLSCAASGFTFGGFGMHWVRQAPGKGLEWVSYITGDSSTIYYADRVRGRFTISRDNAKNSLYLQMNSLRAEDTAVYYCVRGPPGTWAYWGQGTLVTVSS
VL: EIVLTQSPATLSLSPGERATLSCRASESVEFYGTTLVQWYQQKPGQAPRLLIYGASNVESGIPARFSGSGSGTDFTLTISSLEPEDFAVYFCQQIRKVPWTFGQGTKVEIKR
In [3], B4 returned an equilibrium dissociation constant (Kd) of under 0.001 nM, a koff of 1.28e-07 s⁻¹ and an association rate constant (kon) of 302000 M⁻¹ s⁻¹. In test [4], this molecule showed a dissociation constant Kd of at most 0.0011 nM, a koff of under 1e-07 s⁻¹ and a kon of 73100 M⁻¹ s⁻¹. Also, the “IC50 (read off the curve)” value in test [5] was about 0.1 µg/mL.

B5: chimeric anti-human PD-L1 antibody Mab 3-18 (antibody, human IgG1, kappa, V domains shown)
VH: EVHLQESGPSLVKPSQTLSLTCSVTGDSITSGYWNWIRQFPGNKLEYMGYVSYSGSTYYNPSLKSRISITRDTSKNQYYLQLSSVTTEDTATYYCANYYGDNWPFPLDYWGQGTSVIVSS
VL: DIVMTQAAPSVPVTPGESVSISCRSNKSLLHSNGNTYLYWFLQRPGQSPQLLIYRMSNLASGVPDRFSGSGSGTAFTLTISRVEAEDVGVYYCMQHLEYPFTFGGGTKLEIER
notes: as for B1
Consider B5, for which the “IC50 (read off the curve)” value in [1] was about 0.2 µg/mL. In addition, in [2], the Kd was determined as 1.16 nM, the off-rate (koff) is 0.000408 s⁻¹ and the kon worked out at 351000 M⁻¹ s⁻¹.

B6: chimeric anti-human PD-L1 antibody Mab 3-17 (antibody, human IgG1, kappa, V domains shown)
VH: EVHLQESGPSLVKPSQTLSLTCSVTGDSITSGYWNWIRQFPGNKLEYMGYVSYSGSTYYNPSLKSRISITRDTSKNQYYLQLSSVTTEDTATYYCANYYGDNWPFPLDYWGQGTSVIVSS
VL: DIVMTQSPATLSVTPGDRVSLSCRASQSINGNLHWFQQKSHESPRLLIKYASQSISGIPSRFSGSGSGSDFTLRINSVEPEDVGVYYCQNGHGFPYTFGGGTKLEIKR
notes: as for B1
Take B6: the “IC50 (read off the curve)” value in test [1] is about 0.2 µg/mL. In test [2], this molecule registered a Kd of 1.5 nM, an off-rate constant (koff) of 0.000626 s⁻¹ and an association rate constant (kon) of 417000 M⁻¹ s⁻¹.

B7: chimeric anti-human PD-L1 antibody Mab 1-01 (antibody, human IgG1, kappa, V domains shown)
VH: EVQLQQSGPELVKPGASVKMSCKASGYSFSGYFLNWVKQSHGKSLEWIGRINPSNDDTVYSQKFKDRATLSLDRSSGTVHMELRSLTSEDSAVYYCARFGHASWYFDVWGAGTTVTVSS
VL: QIVLTQSPAIMSASPGEKVTMTCSARSSVIYMSWYQQKPGSSPRLLIYDTSHLASGVPVRFSGSGSGTFYSLIISRVEAEDAATYYCQQWSTYPLTFGAGTRLELNR
notes: as for B1
On to B7, for which binding in test [2] was characterised by a dissociation constant (Kd) of 13 nM.

B8: chimeric anti-human PD-L1 antibody Mab 1-02 (antibody, human IgG1, kappa, V domains shown)
VH: EVQLQQSGPELVKPGASVKMSCKASGYSFSGYFLNWVKQSHGKSLEWIGRINPSNDDTVYSQKFKDRATLSLDRSSGTVHMELRSLTSEDSAVYYCARFGHASWYLDVWGAGTTVTVSS
VL: QIVLTQSPAIMSASPGEKVTMTCSARSSIIYMSWYQQKTGSSPRLLIYDTSHLASGVPVRFSGSGSGTFFSLIISRMEAEDAATYYCQQWSTYPLTFGAGTRLELKR
notes: as for B1
Consider B8, for which binding in test [2] was characterised by a dissociation constant (Kd) of 16 nM. This Kd and that of the molecule before are within 1.5-fold of each other.

B9: chimeric anti-human PD-L1 antibody Mab 2-04 (antibody, human IgG1, kappa, V domains shown)
VH: QVQLQQSGAELARPGASVKMSCKASGYTFTDYAMHWIKQRPGQGLEWIGFIIPSGDHTDYNQNFKDRATLTADKSSNTAYMQLTSLTPDDSAVYFCARGHGFHLYVMDYWGQGTSVTVSS
VL: DIVMTQSPATLSVTPGDGVSLSCRASQSIADYLHWYQQKSHESPRLLIKYASQSISGIPSRFSGSGSGSDFTLSISSVEPEDVGVYFCQNGHSFPPTFGTGTKLELKR
notes: as for B1
With B9, the “IC50 (read off the curve)” value in test [6] was about 0.3 µg/mL. In test [2], the Kd stood at 0.279 nM, the koff is 0.000241 s⁻¹ and the on-rate constant (kon) stood at 864000 M⁻¹ s⁻¹.

B10: chimeric anti-human PD-L1 antibody Mab 3-16 (antibody, human IgG1, kappa, V domains shown)
VH: DVQLVESGGGLVQPGGSRKLSCAASGFTFGGFGMHWVRQAPEKGLEWVAYITGDSSTIYYADRVRGRFTISRDNPRNILFLQMTSLGSEDTAMYYCVRGPPGTWAYWGQGTLVTVSA
VL: DIVLTQSPASLAVSLGQRATFSCRASESVEFYGTTLVQWYQQRPGQPPKLLIYGASNVESGVPARFTGSGSGTDFSLNIHPVEEDDIAMYFCQQIRKVPWTFGGGTKLEIRR
notes: Mouse variable domains on human IgG1 / kappa constant regions; also called parent antibody Mab 3-16
In the case of B10, the koff in test [3] was determined as 1.19e-07 s⁻¹; in test [4], 8.34e-05 s⁻¹; in test [2], 6.17e-05 s⁻¹. Besides, the kon in test [3] amounted to 286000 M⁻¹ s⁻¹; in test [4] it was 96700 M⁻¹ s⁻¹; in [2] it was 423000 M⁻¹ s⁻¹. Further, the figures for the dissociation constant Kd in [4], in [10] and in test [2] were 0.863 nM, under 0.001 nM and 0.146 nM, respectively. For the same molecule, the “IC50 (read off the curve)” value in [1], in test [7] and in test [9] was about 0.2 µg/mL in each case. Also, the “EC50(nM), IL-2 production by SEB stimulated human PBMCs” value in [8] was determined as 5.41 nM.

In general, Kd refers to a measure of binding affinity in units of concentration. The low end stands for a tighter complex, the high end for a looser complex. Broadly, the koff is the rate constant with which the complex falls apart. A high value points to fast dissociation. The term kon denotes a measure of how fast the partners come together.
